Among the data in the NTF2 design screens of Basanta et al. (2020) are protease stability score values, retold here.

The series is described as follows: protease stability score; higher = more stable; yeast display proteolysis, trypsin and chymotrypsin.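 Note: relative to predicted unfolded state with 0 unfolded-like and 1 meaning tenfold more protease.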
“SELHEDAEEIAKQFSRAWTTGDFEELDKLFDPNARIEYGDYEVHGRHIVSKFLRQIRIKEVRFIVRRVEHYDGRIRLWGELTLHGNINGRDFDLHTKSDLLVIKIDGRWVVEQYIIR” returned a protease stability score of 1.47.

For the sequence “SELHEEAEELTEKIIRILLTGNEHFFSELVDPDVRTNVDGKELHGREEALRKFEEMRRKLGYDRVRVELRKYTVFDGRVEVVTELNVNGRRLEYIWRMHKVDGRWSLHIWEIR”, the protease stability score is 2.65. The sequence “SELHEEIHKMVQEFLELFLTGDFHRIKQLMDPNVKLIYGDKLFHGRENVEKLHEELRWRYKNATIHVDLREITIFENRAVTDTSIEFDVNGKHISHETKVIIEKIDGQWVIKSIYIN” showed a protease stability score of 2.13.

In turn, “SELHEEVRHIAEQWVKSWITGDEHLLQKLADPHVRFKIGDKSNHGRENVIKEIRRLEEEHGAEERIIITHVRVVGDKYELHGTYELRIGDKHETRHLHIEIWVVNGVVKEIDIQID” registered a protease stability score of 1.07.

“SELHEKLKRDMDILEELLLTGDWEKLLKYIDPHARLEIGDKEVHGREILSEVFRDVFERIKNARIHIEHSEAINGRFDIHSEWIVNGKNRRVHIETVVINGRVDKLYFEIRHR” returned a protease stability score of 1.05. The same measure for “SELHKFAEELSRRWFEMVLTGDEDSLNELADPNVRNDVNGRELIGRESFAKWVKELRIEDVRHKRSRIEVQGDKMIIHMDIESVVTIDGVRRDQRYEIIIISRKVNGRWLVHSVEFRVE”: 1.18; for “SELHKHVKHLAEHFWHLLETGDWEKMTKNADPNDRLDIHIGDKDIHNHGRERSLKTWTELEREMGIDHLTLRHRDLQGDKVIIHTESVFDGRHVKVEIIVVVINGRLKRVEVRFE”: 0.767. The value for “SELIKVSRHAMEILVHSWLTGDWERSEELVDPHARTQYGDKHVHGMELFEEIFKEELDRVKGMRLEIIIRRVDLQGNKAEVDGEFRNHVNGVDVRRRMHVELVVVNGVVESTSIRIQ” was 0.453; that for “SELIRASETMMKAIADSEETGDWRLLRELFDPHVRIEIGDKKYHGWKYLKHFMEELRIESRTELEHVDTFDGKVRVEGTLTTDLRVNGQEHTINLDIRSIIVKIDGRWIIHKVKIH” was 1.14; that for “SELKEEVDRWAKRFIHAVETGDEDTILKFMDPHVKSSVGEKVHHGREFLIIIWRELRIRHFTVHHIRVDEDHLIIHMEWQGHVNGKEIRLEVDLFIRKVDGVWIMKHIEIR” was 2.03. The value for “SELKEILRKAIELLLRLWVTGDEEELLELFDPNVKLVIGDKIFIGREEFEKVSRHARVKRSDINDFRVQGDKITYDTRMDGHVNGKDIDTTVDIIAVKIDGRWFNHSIIVH” was -0.093; that for “SELKESATDIMRIYIEAWLTGDFEEITRLADPRMRVINDFNGRTQVNHGRELFRETLKHWRIKHVHIDDMRSFEGRSESHGTVHGQFNGVEDEVRFEVRMVVVDGVLHSMTIIFK” was 1.18; that for “SELKNWARIIAERVTDELNTGNEHRLRELFDPNVKIRIDGRDFHGMDTLRRFFEELRITHTHWEHKDMHLIGDKALLHGTLKINILQGDKTHETTFDVRIFVIKVNGRWSYEHMEID” was 1.22.

In the case of “SELKQAIDDLIRRFEHIYHTGNEEIWERLADPNTRIDIDGQEIIGREQATRERREEMKKLGVERVEVELRLRNVEVVGNKLHLDGELILRYGDKTVVIDSKINLQKINGRWVIREEIYH”, the protease stability score worked out at 1.04. The same measure for “SELNEISEEAVEWFRKVLLTGNEDLLLNLADPNVRYEVGDKRRVGRESMIEQIQHFLHEMGINHIHSVHIRDVRIQGDYIEVDSELETTVNGQKMYIHMFLRARKIDGKWILDRIYVH”: 1.02. The value for “SELNEKLKHLIELHWRVLETGDEHMMTRLLDPHARLEYGDKELHGREEVTHWHYEILEKVKNLQIHLSDYRIVNGQIHLHVVENVNGVTTRRFINIEKIDGRWHDREIRIE” was 0.757.

The sequence “SELNHSVRRAIEIFERVSKTGDEREIRDLADPNVKLDFDGREHHGWEWFVRFMKEIRIKDHRIRDVELIGEFVIIHGELEMEINGVDIRTEVEFYVFKINGKWYLKRLIIR” displayed a protease stability score of 1.92. The same measure for “SELSEDLDMYIKIFLRHTETGDEESVRDFADPHAKLEIGDKTFHGRETFLDWFLDLRDRIPNITVRIHEVRIIGDKIHIDLEIIIGEKRTRIHLKIFKVDGVWVLKSLRIN”: 1.58; for “SEMDEASKLALKLLEHMVRTGDEHLSEHLVDPHARLFQGDKVEWGRERMTRQLHEWRVRDFKLKRVHVYNGRIEVDGVLNGTVDGVDENRDVRLIITKIDGQWLIKSVIIE”: 0.474. The value for “SEMDENIHEALKEEMHAWVTGDFDKIEHLLDPNTRVEQGEFIYHGRFFVEFVRRRVDHVFWHHVEIRHIENVDGRMIIDGIVDFEETAENHRHRHTIRTIIYLEKIDGKWYIRSLEVK” was 0.874; that for “SEMEDIAEEWAELILHLWHTGDEDKLWKLADPNTREHVNGRNLHGREEIVRIIVHEMVEMRIKFRPHDVRVQGDKVIIDGIKEIHIDGKEIRIRIEIVIVVINGRYHSSELTVH” was 1.04. The value for “SEMEEESHKVVEYATHVFATGDEHLMRKNFDPDVKLDYNGKHFHGWEEFVKLMQTLREKYGVKHVKRVEIEDIRIIGNKVEVDTRVVQNVDGVPFELEITLILIKIDGKWRNHSSRIR” was 0.037; that for “SEMEEEVRRAMKSFIKDLETGNEKSNHENVDPHARLLINGQEFHGMEHVSRWINKAGIDHFEIDEFRIIGNKIRIDGTITFNGQQHKVRIDVVKVDGRWLVKSLEII” was 1.29; that for “SEMEEHAERVWRIMLTLLLTGDEEKFNHLADPNTRLIIIIGDKELHFHGRHEISNYLHRYLREIRIDHFHEHSITVQGNWVHTDGIMLGRFDGKRHEIRVHIHLIVIDGRIKEIYLENR” was 1.64.

Turning to “SEMEETAKTVYKRWFDMLHTGDEELLTRFMDPHVRVQQGDKEIVGWELVVTHNRHLRYEDSHLKDIETQGDKVIIRGELVLTIGDKRFTIDVEILAQKVDGRWILKSVRFS”, the protease stability score amounted to 0.035. On to “SEMEETLKKAFHNLLEHIKTGDEQLLKEFLDPNTKVEVDGVELIGMEKFIELMREIEKRVDVIRSLELEHWEVVGNKIRMEVRLNIEINGKDTFTRTHLIALKVNGRWILHSVRIG”, for which the protease stability score came to 1.75.

“SEMEEVAVREWEILVKALRTGDERIISELMDPHARVDYNGRQLHGREEVKKFLEEIRIVTHHTEIKDHEYQGNKLIMHGHVDVENEYGDKTERIDTHIHIILRKVNGRWFITEIDIR” gave a protease stability score of 2.53. The same measure for “SEMEEVYKRWVDLFRHAMDTGNEDLHLHLLDPHVRININGVELIGRDDDRDHLERLRKELGVSRFEMRVRIRDVDIQGDKIRSETEFTVIFNGREIIIKTRLILEKVNGRWILRSLEYN”: 1.39; for “SEMEHNLLEFIEHLLRNWRTGDEDREHELADPHYRIDVNGVELHGMEYLLEMFRRLGIDHMEFELKRSTVVGDFAIVDGNLQFHVDGKWERRKVKMVNKKVDGRWHHTQFSVN”: 1.5; for “SEMEHQSRKILEDTLRQWLTGDWHSLHELMDPNTKLDVGDKHFHGREAVKVFLERADHVKDLQIDHMRIQGDKIETDVHMHVTVGDKEKDVEVELIVLKVNGKWLLRSASIK”: 1.22. The same measure for “SEMEKLYRDLYKRFLDNWVTGDEEKLIKYADPNTRLHVGDKHHHGMEHISHLFLEFVYRADHHEYRIDRLEVVDGVAISDGRMREEIGEFELRFDVEIRIVIVNGRLKWIEVSFK”: 0.839; for “SEMENLAREALRIIFHNVLTGDEEEFIRMADPNVRFDINGVEYHGWKRVLQELQRFKGLRIHHIHLEDMDNQGDKIIIYSKLEVHYNGVHTELTVEFISEKVNGRWILRMVVFH”: 2.47; for “SEMHEATEHLLKLWVHIFETGNEKWFNKLADPDYRSRILYGDKELKSHGRENVVEVLYRWLKHFGFDHVRLEDEHIQGNKVHLHFRVQVNGRHHELDLNIDMVNGKIRHVEVILH”: 1.5. The value for “SEMHEDAEEVLRRISHYLNTGDEDSFLEMADPHTRIRVGNKEYIGREWSLVLIEKVKGARQEIRIELKDVNLVNGRLEVDGRFRLHYRFNGKTVDEHRNVIVYSYKFNGRWEIKSEQVD” was 1.49; that for “SENDELNEKLVRDWIISLHTGDEETLRDLLDPHVKVEVGEKRMHGREEYVTHLLHHARRADHIRIEIHQVHNQGDKVNIDGTLHIDVNGKHQHHRVTIIASKVNGKWLIESINIH” was 1.03; that for “SENEETAEDVIELVIEAWVTGDEDLFLSLLDPRVRLEVNGVHHHGRERVLEEIIKNLETLGVDHIEIRIREIKLIGEWVEIHGELIYRYNGVHERRDVEIIAFKFNGRWVLRSLRVR” was 1.82. For “SENEKILHDLSKELFDIYHTGNEERWSEMADPHVKIDVNGQEYHGREEVEEELEHWRRRFKNARYEIHKIHVFDGRLLIEGHINIDGKKRQIHFRIHVVNGKIKEMRIEIR”, the protease stability score came out at 1.82. The value for “SENEKRMRELAEIILISWWTGDEDTLKDLADPRTRVNIDGVDLIGMELTSEFLERHLREMRIHSIELESITVIDGQAHIHLEVDTVVNGVRIRTKIHILVVTVDGRLKSEHYHRR” was 0.446; that for “SENHKLSREALEHFLHLVHTGDFEKIYHMLDPNVKSEAENHHDHGMRDVVHLWRTMGIDHIRVHEVRIFENHLDVDMISIVGDKHFRLNIHIRKVNGRWQTELVRVN” was 1.8; that for “SENHRNLLEWARIALEALITGDWKMLLDLLDPNVRFIFNGVHLHGMEHVFHRMTREIKEIRIKFEVHDMRSIGEKVEMDTRRHVEVNGVETTIDTRVHVVVIDGVIHEIRIEHR” was 1.1. On to “SENKRVAVEWVRDFLRALRTGDEDRVRQLADPHVRIDFNGRDHHGRHFLVRMLREIRIHDVRIRDVDVQGDFLITELEIDVEIDGKRDTLRMNIIFEKVDGRWMVSEVQFE”, for which the protease stability score was found to be 1.5. The same measure for “SEQDEMAEKWVHMFLHSWFTGDEDFFETLLDPNVQLIVNGKHHHGREDVKRFLHEEYRRIDHIEDFHLRRLEIQGDFARLDGEVIMIVNGRRHEFRVEIRLFIVNGKMRSIEINEE”: 2.23; for “SEQEEITKKATEDMLRNIETGDPDMIDHLLDPDVRQEIIINGRSHENHGMEKLRKWLSTWHDEFKNVKYDLRTVEIIDGRVRIEGVLNVDGVDLHIEIRLVIVNGKLREVYHHVD”: 1.36.

“SEQEELSKKFFHDLLHAMKTGDESSLYSFLDPNMKHEFDGKVIHGMEEVARIIVEKLERADHHDIRIHDEKMQGDYLVMDVRIIINIDGKEVIKDIKLTWLKIDGRWHVTSVVLH” returned a protease stability score of 1.73.

For “SEQEERETRFMEKAWDLLRTGDEHLLERLADPNARLEIDGRKKHGRETIIEYFRHVKEHLGFKHIELHHMHLVDGVLHIDGIFRYGDKTHRTEIVYYVVNGRLERIEIIIL”, the protease stability score is 1.22. “SEQEESRRWWLEELLTFLVTGDENRLKELLDPDVRVVVNGKHLHGMEAFEEYLRQIDHVDSHKVTDVKVQGNKIIVHTRAKINVDGRHVETELIFIVHKIDGKWKLHSFESR” showed a protease stability score of 1.69. The same measure for “SEQEEYLKEYAKHFYEFLLTGDEDWLKRLFDPEARLTVEVGDKTEHLHGREEVSKFWKHLLTEMRIEMTLKDLDSQGEFIVSVTELNINIDGKTIHTRMEIILVVVNGRLREVELRIK”: 2.3.
